For data set [1], the target named is bovine serum albumin (bovine) (UniProt P02769). Briefly: immuno-trap protease assay, 1 ug rabbit immunoglobulins coated, background control, 50 ng blank column.
The subject of data set [2] is T1, fluorescent cathepsin D/E substrate MOCac-Gly-Lys-Pro-Ile-Leu-Phe-Phe-Arg-Leu-Lys(Dnp)-D-Arg-NH2.
T1 sequence: GKPILFFRLK

Data set [3] deals with control insect cell lysate (sf9 cells infected with empty Baculovirus). Briefly: immuno-trap protease assay, control lysate.
The target in data set [4] is recombinant porcine PAG-2 (FLAG-tagged) (porcine) (UniProt Q29079). Briefly: immuno-trap protease assay on crude insect cell lysate (second row).
Data set [5] addresses recombinant bovine PAG-2 (fusion protein with the FLAG peptide) (bovine) (UniProt Q28057). The description is as above.
The target in data set [6] is recombinant bovine PAG-12 (fusion protein with the FLAG peptide) (bovine). The description is as above.
For data set [7], the target named is recombinant porcine PAG-2 (FLAG-tagged) (porcine) (UniProt Q29079). Briefly: immuno-trap protease assay on crude insect cell lysate.
The target of data set [8] is recombinant bovine PAG-2 (fusion protein with the FLAG peptide) (bovine) (UniProt Q28057). Described as above.
In data set [9] the target is recombinant bovine PAG-12 (fusion protein with the FLAG peptide) (bovine). Described as above.
For data set [10], the target named is recombinant equine-TSH-beta (equine) (UniProt Q28376). Briefly: immuno-trap protease assay, anti-FLAG with TSH-beta; TSH-beta has no proteolytic activity, so the reading is background and does not tell whether it was trapped.
In data set [11] the target is control insect cell lysate (sf9 cells infected with empty Baculovirus). Briefly: immuno-trap protease assay, control lysate (second row).
In data set [12] the target is recombinant porcine PAG-2 (FLAG-tagged) (porcine) (UniProt Q29079). Briefly: immuno-trap protease assay, anti-FLAG with poPAG-2 lysate as positive control.
The target of data set [13] is T1, fluorescent cathepsin D/E substrate MOCac-Gly-Lys-Pro-Ile-Leu-Phe-Phe-Arg-Leu-Lys(Dnp)-D-Arg-NH2. Briefly: cell-based or functional assay.
Data set [14] concerns the target T2, fluorescent cathepsin D/E substrate MOCac-Gly-Lys-Pro-Ile-Leu-Phe-Phe-Arg-Leu-Lys(Dnp)-D-Arg-NH2.
T2 chain: GKPILFFRLK

Where two headings read alike, the source gives them in different places.

UniProt P02769, sequence (P02769 25-607 limits assumed): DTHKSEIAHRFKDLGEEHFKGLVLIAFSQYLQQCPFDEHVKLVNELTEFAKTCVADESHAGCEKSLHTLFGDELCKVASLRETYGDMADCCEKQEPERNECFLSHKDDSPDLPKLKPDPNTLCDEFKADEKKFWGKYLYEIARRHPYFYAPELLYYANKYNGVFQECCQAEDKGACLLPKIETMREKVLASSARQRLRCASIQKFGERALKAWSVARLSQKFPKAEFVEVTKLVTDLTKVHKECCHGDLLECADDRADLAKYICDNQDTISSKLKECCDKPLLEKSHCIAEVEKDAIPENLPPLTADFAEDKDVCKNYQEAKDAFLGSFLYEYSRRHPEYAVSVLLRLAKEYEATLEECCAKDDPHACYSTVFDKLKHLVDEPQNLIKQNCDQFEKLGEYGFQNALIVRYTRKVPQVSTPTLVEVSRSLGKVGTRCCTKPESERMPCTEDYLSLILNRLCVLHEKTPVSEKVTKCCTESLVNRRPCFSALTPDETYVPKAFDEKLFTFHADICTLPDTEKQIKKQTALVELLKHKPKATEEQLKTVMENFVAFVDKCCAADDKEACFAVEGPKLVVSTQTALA

In the case of “rabbit immunoglobulins (background control) (antibody)”, in data set [1], the relative fluorescence (counts) of released product came to 6040 counts.

As to “recombinant bovine PAG-12 (fusion protein with the FLAG peptide)”, the “proteolytic activity (% relative activity)” value in data set [2] was “maximal activity for boPAG-12 and poPAG-2 was at pH 3.5”.

Regarding “anti-FLAG monoclonal antibody (M2; Sigma)”, the relative fluorescence of released product (relative fluorescence) in data set [3] was 4120; in [4] it was 92300; in data set [5] it was 26500; in data set [6], 23000; in [7], 96800; in [8], 27000. Further, the relative fluorescence of released product (relative fluorescence) in data set [9] came out at 42300; in data set [11], 7760. The relative fluorescent product release (relative fluorescence) came out at 47000 in [10] and 97400 in data set [12].

With “recombinant boPAG-6 (FLAG epitope tag fusion)”, in data set [2], the proteolytic activity result is “recombinant boPAG-6, -8, -9 and -10 have proteolytic activity with acidic pH optima”; the relative fluorescent product release, anti-FLAG immuno-trap protease assay, pH 3.0 (relative fluorescence) amounted to 84000; the relative fluorescent product release, anti-FLAG immuno-trap protease assay, pH 4.0 (relative fluorescence) worked out at 77900; the relative fluorescent product release, anti-FLAG immuno-trap protease assay, pH 5.0 (relative fluorescence) is 66300. In data set [2], this molecule displayed a relative fluorescent product release, anti-FLAG immuno-trap protease assay, pH 6.0 (relative fluorescence) of 31300 and a relative fluorescent product release, anti-FLAG immuno-trap protease assay, pH 7.0 (relative fluorescence) of 24300.

For the molecule “recombinant boPAG-10 (FLAG epitope tag fusion)”, in data set [2], the proteolytic activity entry was “recombinant boPAG-6, -8, -9 and -10 have proteolytic activity with acidic pH optima”; the relative fluorescent product release, anti-FLAG immuno-trap protease assay, pH 3.0 (relative fluorescence) is 52100; the relative fluorescent product release, anti-FLAG immuno-trap protease assay, pH 4.0 (relative fluorescence) was determined as 42700; the relative fluorescent product release, anti-FLAG immuno-trap protease assay, pH 5.0 (relative fluorescence) is 38800. In data set [2], this molecule gave a relative fluorescent product release, anti-FLAG immuno-trap protease assay, pH 6.0 (relative fluorescence) of 26500 and a relative fluorescent product release, anti-FLAG immuno-trap protease assay, pH 7.0 (relative fluorescence) of 23600.

Turning to “recombinant equine-TSH-beta (from UniProt Q28376 21-138)”, in data set [13], the relative fluorescent product release, anti-FLAG immuno-trap protease assay, pH 3.0 (negative control) (relative fluorescence) came out at 38300; the relative fluorescent product release, anti-FLAG immuno-trap protease assay, pH 4.0 (negative control) (relative fluorescence) is 33900; the relative fluorescent product release, anti-FLAG immuno-trap protease assay, pH 5.0 (negative control) (relative fluorescence) was found to be 35000; the relative fluorescent product release, anti-FLAG immuno-trap protease assay, pH 6.0 (negative control) (relative fluorescence) is 28200. The same molecule showed a relative fluorescent product release, anti-FLAG immuno-trap protease assay, pH 7.0 (negative control) (relative fluorescence) in data set [13] of 26600.

In the case of “recombinant boPAG-9 (FLAG epitope tag fusion)”, in data set [2], the proteolytic activity entry was “recombinant boPAG-6, -8, -9 and -10 have proteolytic activity with acidic pH optima”; the relative fluorescent product release, anti-FLAG immuno-trap protease assay, pH 3.0 (relative fluorescence) is 72100; the relative fluorescent product release, anti-FLAG immuno-trap protease assay, pH 4.0 (relative fluorescence) was 55000; the relative fluorescent product release, anti-FLAG immuno-trap protease assay, pH 5.0 (relative fluorescence) came to 48100. In data set [2], this molecule yielded a relative fluorescent product release, anti-FLAG immuno-trap protease assay, pH 6.0 (relative fluorescence) of 27800 and a relative fluorescent product release, anti-FLAG immuno-trap protease assay, pH 7.0 (relative fluorescence) of 24400.

As to “recombinant boPAG-19 (FLAG epitope tag fusion)”, in [13], the relative fluorescent product release, anti-FLAG immuno-trap protease assay, pH 3.0 (relative fluorescence) amounted to 40300; the relative fluorescent product release, anti-FLAG immuno-trap protease assay, pH 4.0 (relative fluorescence) was 32500; the relative fluorescent product release, anti-FLAG immuno-trap protease assay, pH 5.0 (relative fluorescence) turned out to be 32100; the relative fluorescent product release, anti-FLAG immuno-trap protease assay, pH 6.0 (relative fluorescence) worked out at 24300. Besides, the relative fluorescent product release, anti-FLAG immuno-trap protease assay, pH 7.0 (relative fluorescence) in data set [13] was 23300.

On to “recombinant boPAG-20 (FLAG epitope tag fusion)”, for which, in [13], the relative fluorescent product release, anti-FLAG immuno-trap protease assay, pH 3.0 (relative fluorescence) came out at 38600; the relative fluorescent product release, anti-FLAG immuno-trap protease assay, pH 4.0 (relative fluorescence) was determined as 31300; the relative fluorescent product release, anti-FLAG immuno-trap protease assay, pH 5.0 (relative fluorescence) is 31400; the relative fluorescent product release, anti-FLAG immuno-trap protease assay, pH 6.0 (relative fluorescence) amounted to 24500. The same molecule came in with a relative fluorescent product release, anti-FLAG immuno-trap protease assay, pH 7.0 (relative fluorescence) in [13] of 23800.

Consider “recombinant boPAG-17 (FLAG epitope tag fusion)”, for which, in [13], the relative fluorescent product release, anti-FLAG immuno-trap protease assay, pH 3.0 (relative fluorescence) was determined as 34600; the relative fluorescent product release, anti-FLAG immuno-trap protease assay, pH 4.0 (relative fluorescence) was 28600; the relative fluorescent product release, anti-FLAG immuno-trap protease assay, pH 5.0 (relative fluorescence) worked out at 28500; the relative fluorescent product release, anti-FLAG immuno-trap protease assay, pH 6.0 (relative fluorescence) turned out to be 23300. Besides, in [13], the relative fluorescent product release, anti-FLAG immuno-trap protease assay, pH 7.0 (relative fluorescence) is 23700.

As to “recombinant boPAG-8 (FLAG epitope tag fusion)”, in data set [2], the proteolytic activity entry was “recombinant boPAG-6, -8, -9 and -10 have proteolytic activity with acidic pH optima”; the relative fluorescent product release, anti-FLAG immuno-trap protease assay, pH 3.0 (relative fluorescence) was found to be 80600; the relative fluorescent product release, anti-FLAG immuno-trap protease assay, pH 4.0 (relative fluorescence) came to 63600; the relative fluorescent product release, anti-FLAG immuno-trap protease assay, pH 5.0 (relative fluorescence) came to 56100. In data set [2], this molecule had a relative fluorescent product release, anti-FLAG immuno-trap protease assay, pH 6.0 (relative fluorescence) of 31900 and a relative fluorescent product release, anti-FLAG immuno-trap protease assay, pH 7.0 (relative fluorescence) of 26400.

B1: recombinant bovine PAG-2 (fusion protein with the FLAG peptide) (protein)
chain: DYKDDDDKIVILPLKKMKTLRETLREKNLLNNFLEEQAYRLSKNDSKITIHPLRNYLDTAYVGNITIGTPPQEFRVVFDTGSANLWVPCITCTSPACYTHKTFNPQNSSSFREVGSPITIFYGSGIIQGFLGSDTVRIGNLVSPEQSFGLSLEEYGFDSLPFDGILGLAFPAMGIEDTIPIFDNLWSHGAFSEPVFAFYLNTNKPEGSVVMFGGVDHRYYKGELNWIPVSQTSHWQISMNNISMNGTVTACSCGCEALLDTGTSMIYGPTKLVTNIHKLMNARLENSEYVVSCDAVKTLPPVIFNINGIDYPLRPQAYIIKIQNSCRSVFQGGTENSSLNTWILGDIFLRQYFSVFDRKNRRIGLAPAV
For B1, the “proteolytic activity (% relative activity)” value in data set [14] is “Maximal activity for boPAG-2 was at pH 4”.

B2: recombinant porcine PAG-2 (FLAG-tagged) (protein)
chain: DYKDDDDKLVMIPLTKVKSVRESLREKGLLKNFLKEHPYNMIQNLLSKNSSHVQKFSYQPLRNYLDMVYVGNISIGTPPQQFSVVFDTGSSDLWVPSIYCKSKACVTHRSFNPSHSSTFHDRGKSIKLEYGSGKMSGFLGQDTVRIGQLTSTGQAFGLSKEETGKAFEHAIFDGILGLAYPSIAIKGTTTVIDNLKKQDQISEPVFAFYLSSDKEEGSVVMFGGVDKKYYKGDLKWVPLTQTSYWQIALDRITCRGRVIGCPRGCQAIVDTGTSMLHGPSKAVAKIHSLIKHFEKEYVVPCNARKALPDIVFTINNVDYPVPAQAYIRKYVVPCNARKALPDIVFTINNVDYPVPAQAYIRKNANNNRCYSTFEDIMDTLNQREIWILGDVFLRLYFTVYDEGQNRIGLAQAT
For B2, the “proteolytic activity (% relative activity)” value in [14] is “maximal activity for boPAG-12 and poPAG-2 was at pH 3.5”.

The record behind these values is patent US20090258375A1.
